Data: paper PMC8426336

Target: Trimeric form of SARS-CoV-2 RBD (T-RBD) (SARS-CoV-2 | not stated)
Test: western blot under reduced and nonreduced conditions

Trimeric form of SARS-CoV-2 RBD (T-RBD)
stoichiometry N: 3
